Biological target: Escherichia coli thiol peroxidase, oxidized (disulfide) state (Escherichia coli) (UniProt P0A862)
Test: SEC-MALS

stoichiometry N: 3
Substance: Escherichia coli thiol peroxidase, oxidized (disulfide) state (from UniProt P0A862 1-168) (enzyme)
